The results in this text go back to patent US20200291121A1 (JOINT STOCK COMPANY BIOCAD, published 2020).

For assay [1], the target named is IL-5Rα stably expressed on CHO-IL-5R cells. Briefly: cell-based or functional assay.
The target of assay [2] is T1, mouse IL-5Rα, recombinant extracellular domain (mouse, UniProt P21183 18-339).
T1 construct: extracellular domain; also called animal IL-5Rα
T1 sequence (looked up): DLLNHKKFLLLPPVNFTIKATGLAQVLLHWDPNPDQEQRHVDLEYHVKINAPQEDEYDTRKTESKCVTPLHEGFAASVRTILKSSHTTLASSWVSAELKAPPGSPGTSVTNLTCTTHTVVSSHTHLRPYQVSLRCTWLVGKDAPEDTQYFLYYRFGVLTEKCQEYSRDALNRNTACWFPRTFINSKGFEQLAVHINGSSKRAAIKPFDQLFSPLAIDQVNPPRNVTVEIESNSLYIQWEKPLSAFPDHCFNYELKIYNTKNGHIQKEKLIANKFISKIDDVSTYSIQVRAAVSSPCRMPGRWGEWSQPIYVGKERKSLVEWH
Briefly: BLI (Octet RED 384), antibody immobilised on AR2G sensors, antigen in solution.

For assay [3], the target named is T2, cynomolgus monkey IL-5Rα, recombinant extracellular domain (cynomolgus monkey, UniProt C3VEW9 21-342).
T2 construct: extracellular domain; also called macaque IL-5Ra; cynomolgus monkey antigen (IL-5Rα)
T2 sequence: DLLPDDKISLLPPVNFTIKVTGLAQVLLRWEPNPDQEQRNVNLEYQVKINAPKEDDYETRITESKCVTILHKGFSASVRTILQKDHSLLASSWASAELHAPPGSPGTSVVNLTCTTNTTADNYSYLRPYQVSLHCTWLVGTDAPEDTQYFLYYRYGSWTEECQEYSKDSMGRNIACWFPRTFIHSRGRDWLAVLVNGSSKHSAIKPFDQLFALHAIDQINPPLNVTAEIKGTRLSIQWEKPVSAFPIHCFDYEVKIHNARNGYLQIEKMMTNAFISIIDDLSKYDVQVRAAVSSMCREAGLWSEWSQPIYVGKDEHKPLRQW
Description: BLI (Octet RED 384), antibody immobilised on AR2G sensors, cynomolgus IL-5Rα in solution, 30 °C, 1:1 global model. On the procedure: (§1) Experimental study of binding affinity of antibodies to animal IL-5Rα antigen was performed on Forte Bio Octert RED 384. Antibodies at a concentration of 20 μg/ml were immobilized on the surface of AR2G sensors (Forte Bio) according to a standard protocol and manufacturer's instructions. Analysis was conducted at 30° C. using PBS comprising 0.1% Tween 20 and 0.1% BSA as a working buffer. After baseline recording, the sensors were immersed into wells containing antigen solution (animal IL-5Rα) for 300 seconds, where the complex was associated. Complex dissociation in buffer solution was then detected for 600 seconds.
Binding curves, after subtracting a reference signal, were analyzed using Octet Data Analysis (Version 9.0) software in accordance with the standard procedure and using 1:1 Global interaction model. Anti-IL-5Rα antibodies specifically bind to cynomolgus monkey antigen. Table B. FIG. 16,17,18.
Background: Biolayer interferometry detects binding as a change in optical thickness at a sensor tip.

Assay [4] has as its target T3, human IL-5Rα (interleukin 5 receptor α-chain), recombinant extracellular domain (human, UniProt Q01344 21-342).
T3 construct: extracellular domain; also called IL-5Ra; human antigen; not shown: C-terminal tag (EPEA, Fc or H6F)
T3 sequence (looked up): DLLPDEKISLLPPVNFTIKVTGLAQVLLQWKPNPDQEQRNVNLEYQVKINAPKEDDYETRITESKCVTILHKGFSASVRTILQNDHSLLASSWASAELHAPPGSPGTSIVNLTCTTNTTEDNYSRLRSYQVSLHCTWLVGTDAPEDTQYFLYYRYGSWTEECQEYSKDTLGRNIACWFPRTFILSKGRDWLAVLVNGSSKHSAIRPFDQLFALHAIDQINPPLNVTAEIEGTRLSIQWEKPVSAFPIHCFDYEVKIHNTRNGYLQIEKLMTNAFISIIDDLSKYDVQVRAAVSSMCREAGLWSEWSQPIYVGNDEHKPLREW
Description: BLI (Octet RED 384), human IL-5Rα immobilised on AR2G sensors, full-length antibody in solution, 30 °C, 1:1 global model. On the procedure:
as §1, with “to human” for “to animal”, “384. Human IL-5Rα” for “384. Antibodies”, “μg/ml was” for “μg/ml were”, “sensors (ForteBio)” for “sensors (Forte Bio)”, “containing antibody” for “containing antigen”, “solution” for “solution (animal IL-5Rα)”
Binding curves, after subtracting a reference signal, were analyzed using Octet Data Analysis (Version 9.0) software in accordance with the standard procedure and using 1:1 Global interaction model. Anti-IL-5Rα antibodies specifically bind to human antigen with high affinity. Table A (FIG. 11, 12, 13)

Sequence of IL-5Rα stably expressed on CHO-IL-5R cells (Q01344 whole entry, the tested form may be a part): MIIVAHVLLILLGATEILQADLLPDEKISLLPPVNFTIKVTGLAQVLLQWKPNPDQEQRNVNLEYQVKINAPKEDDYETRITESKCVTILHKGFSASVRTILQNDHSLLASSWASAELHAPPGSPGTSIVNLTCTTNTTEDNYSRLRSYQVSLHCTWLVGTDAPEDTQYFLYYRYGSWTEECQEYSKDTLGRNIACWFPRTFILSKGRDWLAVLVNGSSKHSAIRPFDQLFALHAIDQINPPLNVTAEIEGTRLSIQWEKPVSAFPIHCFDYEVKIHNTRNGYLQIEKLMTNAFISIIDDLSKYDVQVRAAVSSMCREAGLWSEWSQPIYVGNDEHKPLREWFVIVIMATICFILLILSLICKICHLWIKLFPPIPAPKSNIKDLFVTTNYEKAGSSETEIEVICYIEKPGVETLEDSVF

B1: BCD133-03-020 (antibody, human IgG1, kappa)
heavy: not shown
light: QAGLTQPPSVSAAPGQRVTISCSGSRSNIGSGYDVHWYQQVPGTAPKLLIFDDNNRPSGVPDRFSGSKSGTSASLAITGLQAEDEADYYCQSYDSSLSGHVVFGGGTKLTVLRTVAAPSVFIFPPSDEQLKSGTASVVCLLNNFYPREAKVQWKVDNALQSGNSQESVTEQDSKDSTYSLSSTLTLSKADYEKHKVYACEVTHQGLSSPVTKSFNRGEC
Consider B1, for which the “ADCC efficacy (EC50) on CHO-IL-5R cells with PBMC, relative to Benralizumab” value (“ADCC efficacy (EC50) … relative to Benralizumab” for short) in assay [1] is 1.6 times (against Benralizumab). The binding result in assay [2] was “no binding”. The dissociation constant (Kd) in assay [3] is 12.2 nM; in assay [4], 0.667 nM.

B2: BCD133-03-002 (antibody, human IgG1, kappa)
heavy: not shown
light: QAGLTQPPSVSAAPGQRVTISCSGSRSNIGSGYDVHWYQQVPGTAPKLLIFDDNNRPSGVPDRFSGSKSGTSASLAITGLQAEDEADYYCQSYDSSLSGHVVFGGGTKLTVLRTVAAPSVFIFPPSDEQLKSGTASVVCLLNNFYPREAKVQWKVDNALQSGNSQESVTEQDSKDSTYSLSSTLTLSKADYEKHKVYACEVTHQGLSSPVTKSFNRGEC
Take B2: in assay [1], the “ADCC efficacy (EC50) … relative to Benralizumab” value is 1.6 times (against Benralizumab). The binding result in assay [2] is recorded as “no binding”. Also, the Kd in assay [3] was determined as 5.53 nM; in assay [4], 0.527 nM.

B3: BCD133-03-021 (antibody, human IgG1, kappa, V domains shown)
VH: QVQLQESGGGLVQPGGSLRLSCAASGFTFSNYAMSWVRQAPGKGLEWVSAINSGGKSTNYADSVKGRFTISRDNAKNTLYLQMNSLRAEDTAVYYCADYATNYGVPYFGSWGQGTMVTVSS
VL: QSVLTQPPSVSAAPGQRVTISCSGSRSNIGSGYDVHWYQQLPGTAPKLLIYDDNNRPSGVPDRFSGSKSGTSASLAITGLQAEDEADYYCQSYDSSLSGHVVFGGGTKLTVLR
With B3, the “ADCC efficacy (EC50) … relative to Benralizumab” value in assay [1] is 1.6 times (against Benralizumab). Also, in assay [2], the binding result is “no binding”. The results for the Kd in assay [3] and in assay [4] were 16.8 nM and 0.0224 nM, respectively.

One may read the Kd as the equilibrium constant for the complex coming apart.
